1 molecule from paper PMC10574445, “Label-Free Homogeneous Electrochemical Aptasensor Based on Size Exclusion/Charge-Selective Permeability of Nanochannel Arrays and 2D Nanorecognitive Probe for Sensitive Detection of Alpha-Fetoprotein” can be followed below.

Holding throughout (settings): protein: commercial
The target of data set [1] is neutrophil gelatinase-associated lipocalin (NGAL) (UniProt P80188 21-198). Nature of the data set: electrochemical aptasensor (DPV), aptamer release from graphene oxide; Ru(bpy)3 2+/Apt@GO probe; no remarkable signal change; AFP incubated with Ru(bpy)3 2+/Apt@GO at 37 °C for 1 h, DPV on VMSF/ITO; buffer, salt and pH not given in the material.
Data set [2] addresses carcinoembryonic antigen (CEA) (UniProt P06731 35-685). Described as above.
Data set [3] addresses PSA (printed as preprostate antigen) (UniProt P07288 25-261). The data set is described as above.
For the next data set, the target named is T1, alpha-fetoprotein (AFP) (UniProt P02771 19-609).
T1 sequence: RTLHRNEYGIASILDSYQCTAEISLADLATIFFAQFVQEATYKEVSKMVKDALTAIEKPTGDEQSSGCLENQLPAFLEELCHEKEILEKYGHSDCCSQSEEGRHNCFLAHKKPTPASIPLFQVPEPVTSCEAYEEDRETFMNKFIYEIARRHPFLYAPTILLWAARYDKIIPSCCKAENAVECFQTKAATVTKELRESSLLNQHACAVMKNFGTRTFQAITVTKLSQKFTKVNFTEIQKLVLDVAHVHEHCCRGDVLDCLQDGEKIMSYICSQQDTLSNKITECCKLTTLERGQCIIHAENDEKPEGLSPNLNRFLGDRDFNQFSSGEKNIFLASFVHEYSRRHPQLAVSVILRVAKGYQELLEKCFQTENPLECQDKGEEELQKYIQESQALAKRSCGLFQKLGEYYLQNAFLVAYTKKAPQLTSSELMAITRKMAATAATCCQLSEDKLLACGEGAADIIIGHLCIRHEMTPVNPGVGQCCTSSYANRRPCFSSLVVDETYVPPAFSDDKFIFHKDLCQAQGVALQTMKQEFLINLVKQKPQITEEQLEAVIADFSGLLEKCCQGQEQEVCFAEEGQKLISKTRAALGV
Nature of the data set: electrochemical aptasensor (DPV), aptamer release from graphene oxide; Ru(bpy)3 2+/Apt@GO probe; linear 1 pg/mL-1000 ng/mL, LOD 0.8 pg/mL (not a Kd); AFP incubated with Ru(bpy)3 2+/Apt@GO at 37 °C for 1 h, DPV on VMSF/ITO; buffer, salt and pH not given in the material.

Sequence of carcinoembryonic antigen (CEA) (P06731 35-685): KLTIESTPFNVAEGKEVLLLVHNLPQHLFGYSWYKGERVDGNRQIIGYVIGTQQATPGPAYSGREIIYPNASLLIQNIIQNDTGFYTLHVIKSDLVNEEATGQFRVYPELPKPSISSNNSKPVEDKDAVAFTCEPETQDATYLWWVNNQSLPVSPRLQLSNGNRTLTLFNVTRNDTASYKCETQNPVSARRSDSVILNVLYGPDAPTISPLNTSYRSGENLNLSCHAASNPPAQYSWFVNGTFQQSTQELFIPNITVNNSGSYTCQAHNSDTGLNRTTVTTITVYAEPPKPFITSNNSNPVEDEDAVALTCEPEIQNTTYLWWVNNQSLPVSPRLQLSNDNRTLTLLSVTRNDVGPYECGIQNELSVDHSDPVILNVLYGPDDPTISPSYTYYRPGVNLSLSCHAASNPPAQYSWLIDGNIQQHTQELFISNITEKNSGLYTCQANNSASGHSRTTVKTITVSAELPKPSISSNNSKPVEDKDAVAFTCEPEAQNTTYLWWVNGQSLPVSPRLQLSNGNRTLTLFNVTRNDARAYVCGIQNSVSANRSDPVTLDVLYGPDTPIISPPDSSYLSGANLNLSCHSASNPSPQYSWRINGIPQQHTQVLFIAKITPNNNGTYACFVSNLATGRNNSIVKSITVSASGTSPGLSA
Sequence of PSA (printed as preprostate antigen) (P07288 25-261): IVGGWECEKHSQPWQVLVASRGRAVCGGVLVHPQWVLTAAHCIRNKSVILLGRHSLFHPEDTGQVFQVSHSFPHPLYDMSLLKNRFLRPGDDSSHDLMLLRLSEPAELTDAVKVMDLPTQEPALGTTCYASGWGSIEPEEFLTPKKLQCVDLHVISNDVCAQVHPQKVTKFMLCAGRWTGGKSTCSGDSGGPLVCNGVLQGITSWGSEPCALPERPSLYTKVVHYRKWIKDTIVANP
Sequence of neutrophil gelatinase-associated lipocalin (NGAL) (P80188 21-198): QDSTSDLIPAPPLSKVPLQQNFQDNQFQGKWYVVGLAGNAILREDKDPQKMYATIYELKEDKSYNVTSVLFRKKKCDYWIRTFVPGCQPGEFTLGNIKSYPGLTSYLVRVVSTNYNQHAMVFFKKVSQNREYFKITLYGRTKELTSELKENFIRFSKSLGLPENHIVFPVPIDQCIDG

As to ATCAGGTGCAGTTCTCGACTCGGTCTTGATGTGGG (ssDNA) [AFP aptamer (Apt)], the binding result in data set [1] was “no binding”; in data set [2] it was “no binding”; in data set [3], “no binding”; with alpha-fetoprotein (AFP), “binds”.
